Reference: PMC5988292 (2018)

B1: p115-PH (PH domain of p115RhoGEF) (domain or fragment)
chain: KLVHEGPLTWRVTKDKAVEVHVLLLDDLLLLLQRQDERLLLKSHSRTLTPTPDGKTMLRPVLRLTSAMTREVATDHKAFYVLFTWDQEAQIYELVAQTVSERKNWCALITETAG
B2: PRG-PH (non-fluorescent PH domain of PDZRhoGEF) (domain or fragment)
chain: VKQTENRHRLEGYQKRLDATALERASNPLAAEFKSLDLTTRKMIHEGPLTWRISKDKTLDLHVLLLEDLLVLLQKQDEKLLLKCHSKTAVGSSDSKQTFSPVLKLNAVLIRSVATDKRAFFIICTSKLGPPQIYELVALTSSDKNTWMELLEEAVRNATRHP
B3: PH domain from p190RhoGEF (domain or fragment)
chain: TLLYDGLVYWKTATGRFKDILALLLTDVLLFLQEKDQKYIFAAVDQKPSVISLQKLIAREVANEERGMFLISASSAGPEMYEIHTNSKEERNNWMRRIQQAVE
B4: PH domain from LARG (domain or fragment)
chain: KMIHEGPLVWKVNRDKTIDLYTLLLEDILVLLQKQDDRLVLRCHSKILASTADSKHTFSPVIKLSTVLVRQVATDNKALFVISMSDNGAQIYELVAQTVSEKTVWQDLICRMAA

Target: YFP-RhoA·GTPγS (UniProt P61586 1-193)
Sequence (P61586 whole entry): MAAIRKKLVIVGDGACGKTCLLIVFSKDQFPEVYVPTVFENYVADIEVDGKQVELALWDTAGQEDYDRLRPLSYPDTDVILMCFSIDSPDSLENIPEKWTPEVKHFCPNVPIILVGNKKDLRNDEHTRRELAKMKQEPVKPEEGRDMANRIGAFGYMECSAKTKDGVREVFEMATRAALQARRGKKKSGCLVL
Assay: FRET; competition with CFP-PRG-PH

Row | IC50 [µM] | Binder
1 | 170 | B1
2 | 3.4 | B2
3 | 7.2 | B3
4 | 10.5 | B4
